Consider 36 sequences from the supplement of paper PMC7877785.

The data set is described as follows: self-splicing fitness, log relative to wild type (ln ratio); higher = more splicing; Tetrahymena group I intron in knt gene, E. coli kanamycin selection, DiMSum; sequences stand for … in CUCUCU…GGAGGGAAAAGUUAUCAGGCAUGCACCUGGUAGCUAGUCUUUAAACCAAUAGAUUGCAUCGGUUUAAAAGGCAAGACCGUCAAAUUGCGGGAAAGGGGUCAACAGCCGUUCAGUACCAAGUCUCAGGGGAAACUUUGAGAUGGCCUUGCAAAGGGUAUGGUAAUAAGCUGACGGACAUGGUCCUAACCACGCAGCCAAGUCCUAAGUCAACAGAUCUUCUGUUGAUAUGGAUGCAGUUCACAGACUAAAUGUCGGUCGGGGAAGAUGUAUUCUUCUCAUAAGAUAUAGUCGGACCUCUCCUUAAUGGGAGCUAGCGGAUGAAGUGAUGCAACACUGGAGCCGCUGGGAACUAAUUUGUAUGCGAAAGUAUAUUGAUUAGUUUUGGAGUACUCGUGGUCG
In outline:
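The eight P1ex-region nucleotides of an intron in the knt kanamycin-resistance gene on pET-22b(+) were all randomised and the library put into E. coli BL21(DE3). Six replicate transformations were grown overnight at 37°C or 30°C on LB agar with or without 25 μg/mL kanamycin, together with 100 μg/mL carbenicillin, 50 μM IPTG and 0.2% rhamnose. Colonies were pooled and amplicon-sequenced on an Illumina HiSeq 2500. Fitness from DiMSum is the error-weighted combination of wild-type-normalised replicate fold changes, kanamycin over none.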

± gives the uncertainty stated by the source.

Take CUCAAGCAAUAUUACGGGAU: the “self-splicing fitness (ln)” value (30 °C) is -3.47 ± 0.12 and the “self-splicing fitness (ln)” value (37 °C) is -1.34 ± 0.099.

Regarding GCUGAGCAAUAUUACGUCGG, the “self-splicing fitness (ln)” value (37 °C) was -1.27 ± 0.41.

In the case of GUGUAGCAAUAUUACGUAUA, the “self-splicing fitness (ln)” value was -2.85 ± 0.49 (30 °C) and -0.725 ± 0.15 (37 °C).

With GUGAAGCAAUAUUACGUACA, the “self-splicing fitness (ln)” value runs as follows: (30 °C) -0.778 ± 0.082; (37 °C) 0.51 ± 0.12.

On to AUAAAGCAAUAUUACGAAAU, for which the “self-splicing fitness (ln)” value (30 °C) is -0.905 ± 0.067 and the “self-splicing fitness (ln)” value (37 °C) was -0.451 ± 0.098.

Regarding CUUAAGCAAUAUUACGACCG, the “self-splicing fitness (ln)” value is 0.42 ± 0.14 (30 °C) and -0.4 ± 0.16 (37 °C).

With UCAUAGCAAUAUUACGCAUA, where the note is “37 °C”, the “self-splicing fitness (ln)” value was -1.34 ± 0.47.

With UGGGAGCAAUAUUACGGGGA, the “self-splicing fitness (ln)” value is, setting by setting: (30 °C) -2.94 ± 0.32; (37 °C) -2.9 ± 0.29.

Regarding AUAAAGCAAUAUUACGCCAC, the “self-splicing fitness (ln)” value (30 °C) is -1.94 ± 0.38.

AUGAAGCAAUAUUACGCAUG: the “self-splicing fitness (ln)” value is -0.801 ± 0.077 (30 °C) and 0.175 ± 0.085 (37 °C).

Regarding AAACAGCAAUAUUACGUGUA, the “self-splicing fitness (ln)” value reads like this: (30 °C) -2.6 ± 0.1; (37 °C) -1.41 ± 0.089.

As to CAAAAGCAAUAUUACGGAUU, the “self-splicing fitness (ln)” value (30 °C) is -3.49 ± 0.1 and the “self-splicing fitness (ln)” value (37 °C) is -2.87 ± 0.1.

With AGGUAGCAAUAUUACGAAGC, the “self-splicing fitness (ln)” value reads like this: (30 °C) -3.821 ± 0.036; (37 °C) -2.3 ± 0.042.

As to GGGGAGCAAUAUUACGUCGC, the “self-splicing fitness (ln)” value (37 °C) is -0.104 ± 0.44.

On to UGCUAGCAAUAUUACGAGGA, for which the “self-splicing fitness (ln)” value (30 °C) was -2.99 ± 0.26 and the “self-splicing fitness (ln)” value (37 °C) is -1.62 ± 0.17.

As to CUCGAGCAAUAUUACGAUAA, the “self-splicing fitness (ln)” value is -2.16 ± 0.36 (30 °C) and -2.02 ± 0.37 (37 °C).

On to UUCAAGCAAUAUUACGCGCC, for which the “self-splicing fitness (ln)” value is -0.923 ± 0.17 (30 °C) and -1.38 ± 0.25 (37 °C).

With UGUUAGCAAUAUUACGGCUG, the “self-splicing fitness (ln)” value runs as follows: (30 °C) 0.0825 ± 0.08; (37 °C) 0.196 ± 0.12.

Regarding GUACAGCAAUAUUACGUCUU, the “self-splicing fitness (ln)” value is -0.533 ± 0.079 (30 °C) and 0.628 ± 0.092 (37 °C).

For ACAUAGCAAUAUUACGAUUU, the “self-splicing fitness (ln)” value by setting is: (30 °C) -0.687 ± 0.062; (37 °C) -0.157 ± 0.081.

With GUUCAGCAAUAUUACGGCUG, the “self-splicing fitness (ln)” value is, setting by setting: (30 °C) -3.59 ± 0.23; (37 °C) -2.38 ± 0.26.

Consider UCAUAGCAAUAUUACGCCCU, for which, where the note is “30 °C”, the “self-splicing fitness (ln)” value was -2.75 ± 0.36.

With CCUUAGCAAUAUUACGCCGU, the “self-splicing fitness (ln)” value was -2.66 ± 0.22 (30 °C) and -2.18 ± 0.24 (37 °C).

Consider AGCAAGCAAUAUUACGACAG, for which the “self-splicing fitness (ln)” value (30 °C) was -2.65 ± 0.14 and the “self-splicing fitness (ln)” value (37 °C) is -1.45 ± 0.15.

Turning to UCGUAGCAAUAUUACGGCAA, the “self-splicing fitness (ln)” value is -2.52 ± 0.36 (30 °C) and -0.888 ± 0.27 (37 °C).

CGAGAGCAAUAUUACGCCCA: the “self-splicing fitness (ln)” value (37 °C) is -0.872 ± 0.36.

CUAUAGCAAUAUUACGGCCG: the “self-splicing fitness (ln)” value was 0.0895 ± 0.15 (30 °C) and -0.314 ± 0.15 (37 °C).

On to GCGUAGCAAUAUUACGGUAC, for which the “self-splicing fitness (ln)” value is, setting by setting: (30 °C) -2.72 ± 0.25; (37 °C) -1.44 ± 0.19.

As to UCGUAGCAAUAUUACGUGCG, the “self-splicing fitness (ln)” value is -2.44 ± 0.14 (30 °C) and -0.347 ± 0.14 (37 °C).

In the case of AUCUAGCAAUAUUACGCAGC, the “self-splicing fitness (ln)” value reads like this: (30 °C) -2.64 ± 0.35; (37 °C) -2.06 ± 0.31.

For the sequence ACUGAGCAAUAUUACGUCUA, the “self-splicing fitness (ln)” value (37 °C) is -2.44 ± 0.25.

With UCGAAGCAAUAUUACGCGGG, the “self-splicing fitness (ln)” value is, setting by setting: (30 °C) -2.18 ± 0.19; (37 °C) -1.68 ± 0.19.

In the case of GACGAGCAAUAUUACGUAUA, the “self-splicing fitness (ln)” value reads like this: (30 °C) -3.23 ± 0.29; (37 °C) -0.524 ± 0.2.

For CGAGAGCAAUAUUACGGAUU, where the note is “30 °C”, the “self-splicing fitness (ln)” value was -2.72 ± 0.39.

Take UAUUAGCAAUAUUACGGCCA: the “self-splicing fitness (ln)” value runs as follows: (30 °C) -0.0346 ± 0.21; (37 °C) -0.902 ± 0.16.

With GUUUAGCAAUAUUACGCGAU, the “self-splicing fitness (ln)” value is -3.12 ± 0.4 (30 °C) and -2.42 ± 0.42 (37 °C).
